According to patent publication US20070099822A1, “Regulation of tissue mineralization and phosphate metabolism by asarm peptides” (priority 2003, published 2007):
“Also recorded” adds a separate entry of the source.

What was measured:
[1] = biological target: T1, chip-immobilized secPHEX (Homo sapiens, UniProt P78562); test: Surface plasmon resonance, secPHEX analyte on immobilized secPHEX; format: binding; settings: 2 uM secPHEX
T1 construct: to generate a soluble, secreted form of PHEX; made in house; gift of Crine and Boileau, University of Montreal
T1 sequence (P78562 46-749 limits assumed): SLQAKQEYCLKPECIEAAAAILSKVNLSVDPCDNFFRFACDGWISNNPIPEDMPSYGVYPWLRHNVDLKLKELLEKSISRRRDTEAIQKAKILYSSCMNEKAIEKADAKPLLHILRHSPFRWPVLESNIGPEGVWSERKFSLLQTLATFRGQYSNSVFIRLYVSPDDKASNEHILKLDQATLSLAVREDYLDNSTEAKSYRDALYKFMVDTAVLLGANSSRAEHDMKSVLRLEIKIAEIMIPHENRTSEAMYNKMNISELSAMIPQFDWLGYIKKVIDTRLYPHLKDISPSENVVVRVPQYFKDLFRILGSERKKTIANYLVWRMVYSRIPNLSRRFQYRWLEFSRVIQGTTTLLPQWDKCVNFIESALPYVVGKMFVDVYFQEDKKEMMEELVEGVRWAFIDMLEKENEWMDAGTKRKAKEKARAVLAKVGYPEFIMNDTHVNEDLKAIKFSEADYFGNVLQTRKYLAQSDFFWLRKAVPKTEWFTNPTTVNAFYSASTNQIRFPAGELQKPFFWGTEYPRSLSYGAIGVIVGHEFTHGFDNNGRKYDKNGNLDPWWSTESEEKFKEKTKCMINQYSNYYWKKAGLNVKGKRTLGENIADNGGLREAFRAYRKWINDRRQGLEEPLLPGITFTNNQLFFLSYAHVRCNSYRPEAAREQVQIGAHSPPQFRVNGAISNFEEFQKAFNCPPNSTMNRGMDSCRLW
From the text: (§1) Surface Plasmon Resonance (SPR). A Biacore 3000 SPR instrument (Biacore, Piscataway, N.J.) in conjunction with CM5 research grade chips were used to conduct the Surface Plasmon Resonance (SPR) experiments, as previously described (Morgan, et al., A conserved clathrin assembly motif essential for synaptic vesicle endocytosis, J Neurosci 20(23):8667-8676, 2000; Morgan, et al., Uncoating of clathrin-coated vesicles in presynaptic terminals: Roles for Hsc70 and auxilin, Neuron 32(2):289-300, 200 1; Morgan, et al., Eps15 homology domain-NPF motif interactions regulate clathrin coat assembly during synaptic vesicle recycling, J Biol Chem 278(35):33583-33592, 2003). The experiments were performed at 25° C. using Biacore (Piscataway, N.J.) buffer (10 mM HEPES pH 7.4, 150 mM NaCl, 0.005% surfactant P20) supplemented with 2 mM ZnCl2 (HBS-P-Zn) or without ZnCl2 (HBS-P) as indicated. Injected samples also contained 2 mg/mL carboxymethyl-dextran to reduce non-specific association with the dextran matrix of the chip and a flow rate of 5 μL/min was used. […] The response unit or RU is a measure of surface charge density-oscillation and surface-plasmon-positron generation as detected by changes in incident refractive-index monitored by the Biacore optical unit. […]

[2] = biological target: T2, chip-immobilized MEPE (Homo sapiens, UniProt Q9NQ76); test: Surface plasmon resonance, secPHEX analyte on chip-immobilized MEPE; format: binding
T2 construct: Purified protein contained N-terminal amino acid residues APTFQ confirming cleavage of predicted nascent-MEPE signal-peptide; made in house; host or cells: Spodoptera frugiperda (sf9) insect cells, baculovirus
T2 sequence (Q9NQ76 18-525): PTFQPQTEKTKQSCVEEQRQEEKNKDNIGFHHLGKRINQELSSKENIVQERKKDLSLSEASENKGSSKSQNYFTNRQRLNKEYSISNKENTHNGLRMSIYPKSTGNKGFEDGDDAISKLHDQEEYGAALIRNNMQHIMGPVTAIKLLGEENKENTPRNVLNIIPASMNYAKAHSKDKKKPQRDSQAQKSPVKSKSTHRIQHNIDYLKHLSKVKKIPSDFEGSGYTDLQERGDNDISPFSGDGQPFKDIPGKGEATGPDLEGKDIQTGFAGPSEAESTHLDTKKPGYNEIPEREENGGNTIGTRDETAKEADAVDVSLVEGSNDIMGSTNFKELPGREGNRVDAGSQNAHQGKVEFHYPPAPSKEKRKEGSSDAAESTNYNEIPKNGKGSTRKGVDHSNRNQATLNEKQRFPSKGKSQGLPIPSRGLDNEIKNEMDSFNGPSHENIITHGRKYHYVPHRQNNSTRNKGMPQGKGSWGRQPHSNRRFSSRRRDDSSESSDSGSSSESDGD
From the text: (§2) Surface Plasmon Resonance (SPR). A Biacore 3000 SPR instrument (Biacore, Piscataway, N.J.) in conjunction with CM5 research grade chips were used to conduct the Surface Plasmon Resonance (SPR) experiments, as previously described (Morgan, et al., A conserved clathrin assembly motif essential for synaptic vesicle endocytosis, J Neurosci 20(23):8667-8676, 2000; Morgan, et al., Uncoating of clathrin-coated vesicles in presynaptic terminals: Roles for Hsc70 and auxilin, Neuron 32(2):289-300, 200 1; Morgan, et al., Eps15 homology domain-NPF motif interactions regulate clathrin coat assembly during synaptic vesicle recycling, J Biol Chem 278(35):33583-33592, 2003). The experiments were performed at 25° C. using Biacore (Piscataway, N.J.) buffer (10 mM HEPES pH 7.4, 150 mM NaCl, 0.005% surfactant P20) supplemented with 2 mM ZnCl2 (HBS-P-Zn) or without ZnCl2 (HBS-P) as indicated. Injected samples also contained 2 mg/mL carboxymethyl-dextran to reduce non-specific association with the dextran matrix of the chip and a flow rate of 5 μL/min was used. The surfaces of research grade CM5 chips were activated by a 6 min injection of a solution containing 0.2M N-ethyl-N9-(dimethylaminopropyl) carbodiimide and 0.05M N-hydroxy-succinimide. MEPE, PHEX and IgG were immobilized on the same chip (ligands) in different individual flow-cells. Each chip contains four separate flow-cells, one cell was left blank as a negative control. The experiments were repeated on two different chips with 3500 RU (response-units) and 6000 RU of immobilized proteins respectively. The response unit or RU is a measure of surface charge density-oscillation and surface-plasmon-positron generation as detected by changes in incident refractive-index monitored by the Biacore optical unit. Specifically, 1000 RU unit equals a change of approximately 1 ng/mm^2 in surface protein concentration on the chip surface. After immobilization, each surface was blocked by a 6 min injection of 1 M ethanolamine at pH 8.5. […]

[3] = biological target: T3, full-length insect-expressed human-MEPE (Hu-MEPE) (human, UniProt Q9NQ76 18-525); test: SPR (Biacore 3000), MEPE immobilized on CM5 at 3500 RU, secPHEX analyte, HBS-P-Zn (2 mM ZnCl2)
T3 construct: also called recombinant Hu-MEPE; Matrix Extracellular Phosphoglycoprotein
T3 sequence: T2 sequence (Q9NQ76 18-525)
Procedure: as §2, with “The” for “Surface Plasmon Resonance (SPR). A Biacore 3000 SPR instrument (Biacore, Piscataway, N.J.) in conjunction with CM5 research grade chips were used to conduct the Surface Plasmon Resonance (SPR) experiments, as previously described (Morgan, et al., A conserved clathrin assembly motif essential for synaptic vesicle endocytosis, J Neurosci 20(23):8667-8676, 2000; Morgan, et al., Uncoating of clathrin-coated vesicles in presynaptic terminals: Roles for Hsc70 and auxilin, Neuron 32(2):289-300, 200 1; Morgan, et al., Eps15 homology domain-NPF motif interactions regulate clathrin coat assembly during synaptic vesicle recycling, J Biol Chem 278(35):33583-33592, 2003). The”, “ZnCl₂” for “ZnCl2”, “ng/mm²” for “ng/mm^2”

[4] = tested on: IgG; test: Surface plasmon resonance, secPHEX analyte on immobilized IgG; format: binding; settings: same chip
From the text: as §1

B1: mammalian expressed human recombinant secreted PHEX (secPHEX) (enzyme, UniProt P78562 46-749, looked up)
chain: T1 sequence (P78562 46-749 limits assumed)
notes: Gift from Crine and Boileau; Used as SPR analyte and also immobilized as ligand; also called soluble mammalian expressed PHEX
interaction of secPHEX analyte with chip-immobilized secPHEX [1]: very low-level barely-detectable autologous-interaction
binding of secPHEX to MEPE in buffer lacking ZnCl2 ([2]; HBS-P, secPHEX up to 10 uM): No interaction
binding of secPHEX to MEPE ([2]; HBS-P-Zn buffer, saturation at 10 uM secPHEX): dose dependent
Bmax of secPHEX binding to immobilized MEPE ([2]; MEPE 3500 RU): 680 RU
EC50 [3]: 553 nM
interaction of secPHEX with control IgG [4]: no significant signals; also recorded: No interaction
